In the supplement of paper PMC9112550, “Optimization of the antimicrobial peptide Bac7 by deep mutational scanning” (BMC Biology, 2022):

Tested on: Escherichia coli TOP10
Assay: shrunken log2 fold change of peptide-encoding DNA abundance (4.5 h post-induction vs induction); higher = less antimicrobial activity (less host growth inhibition)
Details: time post-induction: 4.5 h; library: site-saturation at positions 5, 18, 19, 20
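Note: peptides expressed intracellularly from a pBAD plasmid library in pooled LB shake-flask culture, induced with 0.3% L-arabinose, DNA abundance read by NGS, three biological replicates, DESeq2 with apeglm shrinkage.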

| Sequence | shrunken log2 fold change |
| --- | --- |
| RRIRPRPPRLPRPRPRPDPGPRP | 0.0845 |
| RRIRPRPPRLPRPRPRPDRIPRP | -0.15 |
| RRIRPRPPRLPRPRPRPDRNPRP | -0.0925 |
| RRIRPRPPRLPRPRPRPDRPPRP | -0.0807 |
| RRIRPRPPRLPRPRPRPDWIPRP | -0.444 |
| RRIRPRPPRLPRPRPRPDYIPRP | -1.2 |
| RRIRPRPPRLPRPRPRPEAGPRP | 0.566 |
| RRIRPRPPRLPRPRPRPEAQPRP | 0.904 |
| RRIRPRPPRLPRPRPRPECRPRP | 0.56 |
| RRIRPRPPRLPRPRPRPECVPRP | 0.541 |
| RRIRPRPPRLPRPRPRPEDQPRP | 0.106 |
| RRIRPRPPRLPRPRPRPEEFPRP | -0.0108 |
| RRIRPRPPRLPRPRPRPEETPRP | -0.131 |
| RRIRPRPPRLPRPRPRPELIPRP | 0.0313 |
| RRIRPRPPRLPRPRPRPELSPRP | 0.46 |
| RRIRPRPPRLPRPRPRPEMGPRP | 0.268 |
| RRIRPRPPRLPRPRPRPEMMPRP | 0.00381 |
| RRIRPRPPRLPRPRPRPENTPRP | 0.11 |
| RRIRPRPPRLPRPRPRPEPHPRP | 0.298 |
| RRIRPRPPRLPRPRPRPESNPRP | 0.0165 |
| RRIRPRPPRLPRPRPRPETYPRP | -0.0102 |
| RRIRPRPPRLPRPRPRPEVHPRP | 0.551 |
| RRIRPRPPRLPRPRPRPEYMPRP | -0.193 |
| RRIRPRPPRLPRPRPRPFGVPRP | -0.112 |
| RRIRPRPPRLPRPRPRPFHQPRP | -0.216 |

| Sequence | shrunken log2 fold change |
| --- | --- |
| RRIRPRPPRLPRPRPRPFKSPRP | -0.222 |
| RRIRPRPPRLPRPRPRPFLCPRP | -0.0669 |
| RRIRPRPPRLPRPRPRPFLNPRP | -0.622 |
| RRIRPRPPRLPRPRPRPFLTPRP | -0.254 |
| RRIRPRPPRLPRPRPRPFLYPRP | -0.138 |
| RRIRPRPPRLPRPRPRPFMHPRP | 0.0361 |
| RRIRPRPPRLPRPRPRPFMQPRP | -0.396 |
| RRIRPRPPRLPRPRPRPFNQPRP | -0.695 |
| RRIRPRPPRLPRPRPRPFPAPRP | -0.161 |
| RRIRPRPPRLPRPRPRPFPEPRP | 0.0208 |
| RRIRPRPPRLPRPRPRPFPFPRP | -0.00615 |
| RRIRPRPPRLPRPRPRPFQGPRP | -0.0115 |
| RRIRPRPPRLPRPRPRPFSKPRP | -0.0785 |
| RRIRPRPPRLPRPRPRPFTHPRP | -0.466 |
| RRIRPRPPRLPRPRPRPFTIPRP | -0.0323 |
| RRIRPRPPRLPRPRPRPFTPPRP | -0.112 |
| RRIRPRPPRLPRPRPRPFVPPRP | 0.0581 |
| RRIRPRPPRLPRPRPRPFVWPRP | -0.0428 |
| RRIRPRPPRLPRPRPRPFWWPRP | 0.55 |
| RRIRPRPPRLPRPRPRPGCFPRP | 0.158 |
| RRIRPRPPRLPRPRPRPGDTPRP | -0.0266 |
| RRIRPRPPRLPRPRPRPGFWPRP | 0.61 |
| RRIRPRPPRLPRPRPRPGGSPRP | 0.166 |
| RRIRPRPPRLPRPRPRPGHGPRP | 0.296 |
| RRIRPRPPRLPRPRPRPGHLPRP | 0.234 |

| Sequence | shrunken log2 fold change |
| --- | --- |
| RRIRPRPPRLPRPRPRPGIYPRP | -0.133 |
| RRIRPRPPRLPRPRPRPGMIPRP | 0.0107 |
| RRIRPRPPRLPRPRPRPGNLPRP | -0.376 |
| RRIRPRPPRLPRPRPRPGNWPRP | 0.0527 |
| RRIRPRPPRLPRPRPRPGPEPRP | 0.213 |
| RRIRPRPPRLPRPRPRPGPLPRP | 0.193 |
| RRIRPRPPRLPRPRPRPGQHPRP | 0.0653 |
| RRIRPRPPRLPRPRPRPGQNPRP | 0.0194 |
| RRIRPRPPRLPRPRPRPGRTPRP | 0.153 |
| RRIRPRPPRLPRPRPRPGSFPRP | 0.0277 |
| RRIRPRPPRLPRPRPRPGTFPRP | -0.226 |
| RRIRPRPPRLPRPRPRPGTWPRP | 0.0893 |
| RRIRPRPPRLPRPRPRPGVFPRP | 0.144 |
| RRIRPRPPRLPRPRPRPGVHPRP | -0.0724 |
| RRIRPRPPRLPRPRPRPGVWPRP | 0.54 |
| RRIRPRPPRLPRPRPRPGWWPRP | 0.356 |
| RRIRPRPPRLPRPRPRPGYHPRP | -0.506 |
| RRIRPRPPRLPRPRPRPGYIPRP | -0.553 |
| RRIRPRPPRLPRPRPRPHCTPRP | -0.479 |
| RRIRPRPPRLPRPRPRPHDIPRP | 0.152 |
| RRIRPRPPRLPRPRPRPHEQPRP | 0.0602 |
| RRIRPRPPRLPRPRPRPHHHPRP | -0.532 |
| RRIRPRPPRLPRPRPRPHHLPRP | -0.0444 |
| RRIRPRPPRLPRPRPRPHHVPRP | 0.0547 |
| RRIRPRPPRLPRPRPRPHIAPRP | -0.392 |

| Sequence | shrunken log2 fold change |
| --- | --- |
| RRIRPRPPRLPRPRPRPHIGPRP | 0.0387 |
| RRIRPRPPRLPRPRPRPHLYPRP | -0.192 |
| RRIRPRPPRLPRPRPRPHPQPRP | 0.238 |
| RRIRPRPPRLPRPRPRPHPTPRP | 0.17 |
| RRIRPRPPRLPRPRPRPHPYPRP | -0.576 |
| RRIRPRPPRLPRPRPRPHQFPRP | -0.0896 |
| RRIRPRPPRLPRPRPRPHQYPRP | -0.623 |
| RRIRPRPPRLPRPRPRPHRHPRP | -0.47 |
| RRIRPRPPRLPRPRPRPHRSPRP | 0.0256 |
| RRIRPRPPRLPRPRPRPHSNPRP | -0.316 |
| RRIRPRPPRLPRPRPRPHTGPRP | -0.0698 |
| RRIRPRPPRLPRPRPRPHVQPRP | -0.0151 |
| RRIRPRPPRLPRPRPRPHWKPRP | -0.131 |
| RRIRPRPPRLPRPRPRPHYQPRP | -0.417 |
| RRIRPRPPRLPRPRPRPIASPRP | -0.0044 |
| RRIRPRPPRLPRPRPRPIAYPRP | -0.0833 |
| RRIRPRPPRLPRPRPRPICGPRP | 0.103 |
| RRIRPRPPRLPRPRPRPICSPRP | -0.014 |
| RRIRPRPPRLPRPRPRPIDQPRP | -0.116 |
| RRIRPRPPRLPRPRPRPIDSPRP | -0.018 |
| RRIRPRPPRLPRPRPRPIEVPRP | -0.113 |
| RRIRPRPPRLPRPRPRPIFCPRP | -0.0959 |
| RRIRPRPPRLPRPRPRPIFNPRP | -0.238 |
| RRIRPRPPRLPRPRPRPIFYPRP | -0.102 |
| RRIRPRPPRLPRPRPRPIGDPRP | -0.0205 |

| Sequence | shrunken log2 fold change |
| --- | --- |
| RRIRPRPPRLPRPRPRPIGHPRP | -0.0228 |
| RRIRPRPPRLPRPRPRPIHNPRP | -0.569 |
| RRIRPRPPRLPRPRPRPIINPRP | -0.909 |
| RRIRPRPPRLPRPRPRPIIRPRP | -0.168 |
| RRIRPRPPRLPRPRPRPIITPRP | -0.587 |
| RRIRPRPPRLPRPRPRPIIWPRP | -0.0266 |
| RRIRPRPPRLPRPRPRPIKLPRP | -0.0641 |
| RRIRPRPPRLPRPRPRPILPPRP | 0.198 |
| RRIRPRPPRLPRPRPRPIMKPRP | -0.411 |
| RRIRPRPPRLPRPRPRPIQFPRP | -0.145 |
| RRIRPRPPRLPRPRPRPIREPRP | 0.31 |
| RRIRPRPPRLPRPRPRPIRRPRP | -0.0359 |
| RRIRPRPPRLPRPRPRPISCPRP | -0.0606 |
| RRIRPRPPRLPRPRPRPISVPRP | -0.171 |
| RRIRPRPPRLPRPRPRPITNPRP | -0.471 |
| RRIRPRPPRLPRPRPRPIVMPRP | -0.445 |
| RRIRPRPPRLPRPRPRPIWPPRP | 0.302 |
| RRIRPRPPRLPRPRPRPIWYPRP | -0.0201 |
| RRIRPRPPRLPRPRPRPIYWPRP | 0.00563 |
| RRIRPRPPRLPRPRPRPKAVPRP | 0.0993 |
| RRIRPRPPRLPRPRPRPKCDPRP | -0.314 |
| RRIRPRPPRLPRPRPRPKDMPRP | -0.0163 |
| RRIRPRPPRLPRPRPRPKECPRP | 0.241 |
| RRIRPRPPRLPRPRPRPKEQPRP | 0.183 |
| RRIRPRPPRLPRPRPRPKFYPRP | -0.351 |

| Sequence | shrunken log2 fold change |
| --- | --- |
| RRIRPRPPRLPRPRPRPKHIPRP | -0.301 |
| RRIRPRPPRLPRPRPRPKHLPRP | -0.355 |
| RRIRPRPPRLPRPRPRPKHPPRP | 0.995 |
| RRIRPRPPRLPRPRPRPKIGPRP | 0.0118 |
| RRIRPRPPRLPRPRPRPKIIPRP | -0.0308 |
| RRIRPRPPRLPRPRPRPKLCPRP | -0.0437 |
| RRIRPRPPRLPRPRPRPKMDPRP | 0.0116 |
| RRIRPRPPRLPRPRPRPKPIPRP | 0.035 |
| RRIRPRPPRLPRPRPRPKQEPRP | 0.138 |
| RRIRPRPPRLPRPRPRPKRSPRP | 0.0941 |
| RRIRPRPPRLPRPRPRPKSMPRP | -0.37 |
| RRIRPRPPRLPRPRPRPKTQPRP | -0.02 |
| RRIRPRPPRLPRPRPRPKVVPRP | 0.454 |
| RRIRPRPPRLPRPRPRPKWTPRP | -0.0336 |
| RRIRPRPPRLPRPRPRPKYNPRP | -0.633 |
| RRIRPRPPRLPRPRPRPKYVPRP | -0.132 |
| RRIRPRPPRLPRPRPRPLAGPRP | 0.3 |
| RRIRPRPPRLPRPRPRPLCEPRP | 0.0379 |
| RRIRPRPPRLPRPRPRPLCQPRP | -0.116 |
| RRIRPRPPRLPRPRPRPLCRPRP | 0.0255 |
| RRIRPRPPRLPRPRPRPLDQPRP | 0.0885 |
| RRIRPRPPRLPRPRPRPLDYPRP | -0.495 |
| RRIRPRPPRLPRPRPRPLECPRP | -0.000998 |
| RRIRPRPPRLPRPRPRPLEVPRP | -0.007 |
| RRIRPRPPRLPRPRPRPLFLPRP | -0.0037 |
